Legend:
Assay in all cases: purified protein
Assay type in all cases: biochemical, Asarum sieboldii
Conditions in all cases: 0.5 mM NADPH, 50 mM Tris-HCl pH 7.5, 2 mM DTT, 30 °C
[1] = substrate: O=C/C=C/c1ccc(O)cc1
[2] = substrate: COc1cc(/C=C/C=O)ccc1O
[3] = substrate: COc1cc(/C=C/C=O)cc(OC)c1O

B1: AsCAD5 (Asarum sieboldii) (protein)
chain: MSNQSGTDNCLGWAARDPSGILSPHSFSRRSIGSDDVSLKITHCGVCYADVAWTRNKVGDSMYPLVPGHEIVGIVQEVGSDVNRFKIGDHVGVGTYVNSCRECVYCKDKLEVVCQKGPTLTFNSLDVDGTITKGGYSSHIVVNERYCYRIPDGYPLVSAAPLLCAGITVYAPMMRHKMNQPGKSLGVIGLGGLGHMAVKFGKAFGLNVTVFSTSESKKEEALKLLGADRFVISSDKKQMEGVMKSLDFIIDTASGDHPFDPYMALLKTTGILVLVGFPSEVKFNPGSLILGLRTLSGSVTGGTKDTQEMLEFCAANKIYPEIELINIEYINEALERLINREVKYRFVIDIENSLK
notes: full ORF 1068 bp (about 355 residues), pMAL-C5X MBP fusion in E. coli Rosetta (DE3), MBP tag removed by Factor Xa, ca. 40 kDa
Km [1]: 45.52 ± 8.888 µM | Vmax [1]: 23 µmol/min/mg | kcat [1]: 249 s⁻¹ | kcat/Km [1]: 5.47e+06 M⁻¹ s⁻¹ | Km [2]: 27.32 ± 6.186 µM | Vmax [2]: 20.5 µmol/min/mg | kcat [2]: 222 s⁻¹ | kcat/Km [2]: 8.12e+06 M⁻¹ s⁻¹ | Km [3]: 35.02 ± 8.043 µM | Vmax [3]: 26.9 µmol/min/mg | kcat [3]: 291 s⁻¹ | kcat/Km [3]: 8.3e+06 M⁻¹ s⁻¹

From publication PMC6321292, “Comparative Transcriptomics Analysis for Gene Mining and Identification of a Cinnamyl Alcohol Dehydrogenase Involved in Methyleugenol Biosynthesis from Asarum sieboldii Miq” (Molecules, 2018)
